Measurements: patent US20170189363A1, “GASTRIC ACID MODULATORS FOR ORAL DELIVERY OF PEPTIDES AND PROTEINS” (NOVEN PHARMACEUTICALS, INC., priority 2015, published 2017)

What was measured:
Format in all cases: in vivo
[1] = Blood glucose after intravenous ranitidine hydrochloride plus oral insulin/SNAC capsules; conditions: rats
Experimental: Rats were administered ranitidine hydrochloride (10 mg/kg) intravenously one hour prior to oral dosing with capsules comprising 0.3 mg insulin/20 mg SNAC. In vivo delivery of insulin was measured indirectly by assessing blood glucose levels at periodic intervals using a glucometer. Results are shown in FIG. 1A (each line represents one treated animal). For comparison, rats were orally administered capsules comprising 0.3 mg insulin/20 mg SNAC without administration of ranitidine hydrochloride, and blood glucose levels were assessed. Results are shown in FIG. 1B (each line represents one treated animal).

[2] = Blood glucose after oral capsules of insulin/SNAC/ranitidine hydrochloride; conditions: rats
Experimental: Rats were orally administered capsules comprising 0.3 mg insulin/10 mg SNAC/10 mg ranitidine hydrochloride, and blood glucose levels were measured at periodic intervals. Results are shown in FIG. 2A (each line represents one treated animal). For comparison, rats were orally administered capsules comprising 0.3 mg insulin/10 mg SNAC (i.e., without ranitidine hydrochloride), and blood glucose levels were assessed. Results are shown in FIG. 2B (each line represents one treated animal).

[3] = Blood glucose after capsule-in-capsule insulin/SNAC with ranitidine hydrochloride; conditions: dogs
Experimental: In particular, a size 0 capsule containing insulin and SNAC was placed inside an empty size 00 capsule, which was placed inside a size 000 capsule, optionally containing ranitidine hydrochloride. The capsules were administered to dogs and blood glucose levels were assessed. Results are shown in FIG. 3 (♦—with ranitidine hydrochloride; ▪—without ranitidine hydrochloride).

In the case of insulin, the bioavailability of insulin ([1]; oral capsules 0.3 mg insulin/20 mg SNAC with i.v. ranitidine hydrochloride vs without, inferred from blood glucose) was “greater”, the blood glucose levels ([1]; oral capsules 0.3 mg insulin/20 mg SNAC, ranitidine hydrochloride 10 mg/kg intravenously one hour prior, compared with no ranitidine hydrochloride, FIG. 1A vs 1B) was “lower” and the blood glucose levels ([2]; oral capsules 0.3 mg insulin/10 mg SNAC/10 mg ranitidine hydrochloride compared with 0.3 mg insulin/10 mg SNAC, FIG. 2A vs 2B) was “lower”. For the same substance, the bioavailability of insulin ([2]; oral capsules with 10 mg ranitidine hydrochloride vs without, inferred from blood glucose) was “greater”, the blood glucose levels ([3]; capsule-in-capsule 3.6 mg insulin and 500 mg SNAC inner, 150 mg ranitidine hydrochloride outer, compared with no ranitidine hydrochloride, FIG. 3) was “lower” and the bioavailability of insulin ([3]; capsule-in-capsule with 150 mg ranitidine hydrochloride vs without, inferred from blood glucose) was “greater”.
